Laboratory results reported in US20250258178A1 (SHIONOGI, published 2025).

T1: human histidine-rich glycoprotein (HRG), purified from human plasma (human, UniProt P04196 19-525)
T1 construct: also called human purified HRG; human purified HRG protein
T1 sequence: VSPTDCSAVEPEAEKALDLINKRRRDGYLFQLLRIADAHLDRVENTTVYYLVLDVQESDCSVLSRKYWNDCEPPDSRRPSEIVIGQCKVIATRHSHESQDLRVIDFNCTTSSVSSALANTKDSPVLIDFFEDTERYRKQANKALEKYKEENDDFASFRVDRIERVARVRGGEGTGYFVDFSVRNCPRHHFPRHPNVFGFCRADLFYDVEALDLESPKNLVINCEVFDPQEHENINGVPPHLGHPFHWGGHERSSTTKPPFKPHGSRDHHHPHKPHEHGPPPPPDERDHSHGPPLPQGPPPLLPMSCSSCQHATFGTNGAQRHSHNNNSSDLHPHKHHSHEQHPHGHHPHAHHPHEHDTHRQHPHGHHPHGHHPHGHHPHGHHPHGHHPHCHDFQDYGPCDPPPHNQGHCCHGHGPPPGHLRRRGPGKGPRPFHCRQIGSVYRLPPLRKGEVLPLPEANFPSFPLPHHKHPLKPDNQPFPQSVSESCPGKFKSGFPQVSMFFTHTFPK


What was measured:
[1] = molecular target: T1, human histidine-rich glycoprotein …; assay: sandwich ELISA, HRG captured by solid phase 58-5C
Description: (§1) The capture antibody solution was dispensed at 25 μL per well into 384-well Maxisorp plates (NUNC), and the plates were incubated at room temperature for 3 hours. The plates were washed twice with 120 μL of washing solution per well (0.05% Tween 20-containing PBS). A blocking solution (1% BSA-containing PBS) was dispensed at 30 μL per well, and the plates were incubated at room temperature for 3 hours. The blocking solution was removed followed by dispensing the standard substance for evaluation at 20 μL per well (n=2), and the plates were incubated at room temperature for 3 hours. After washing the plates four times with the washing solution as described above, the solution of each detector antibody was dispensed at 10 μL per well, followed by dispensing a horseradish peroxidase-streptavidin solution (0.05 μg/mL) at 10 μL per well, and the plates were incubated at room temperature for 1 hour. After washing the plates four times with the washing solution as described above, a chromogenic substrate solution (TMB (3,3′,5,5′-tetramethylbenzidine)) was dispensed at 20 μL per well followed by incubating the plates at room temperature for 10 minutes, then a reaction stop solution 0.5 M H₂SO₄ was added at 20 μL/well, and the absorbance at 450 nm was measured.
(§2) The results regarding the evaluation of combinations chosen from 21 types of anti-HRG monoclonal antibodies are shown in Table 1. In Table 1, the absorbance at a wavelength of 450 nm of each combination was determined as follows: less than 1.0 OD: −, 1.0 OD or more and less than 2.0 OD: +, 2.0 OD or more and less than 3.0 OD: ++, and 3.0 OD or more: +++. The combinations of antibodies which could construct a sandwich ELISA system having enough level of absorbance change were 86 sets evaluated as ++ or +++ in Table 1.

[2] = molecular target: T1, human histidine-rich glycoprotein …; assay: sandwich ELISA, HRG captured by solid phase 35-3G-10C
Description: as §1, §2

[3] = molecular target: T1, human histidine-rich glycoprotein …; assay: sandwich ELISA, HRG captured by solid phase 75-2D
Description: as §1, §2

[4] = molecular target: T1, human histidine-rich glycoprotein …; assay: sandwich ELISA, HRG captured by solid phase 19-1C
Description: as §1, §2

[5] = molecular target: T1, human histidine-rich glycoprotein …; assay: sandwich ELISA, HRG captured by solid phase 42-10D
Description: as §1, §2

[6] = molecular target: T1, human histidine-rich glycoprotein …; assay: sandwich ELISA, HRG captured by solid phase 14-6F
Description: as §1, §2

[7] = molecular target: T1, human histidine-rich glycoprotein …; assay: sandwich ELISA, HRG captured by solid phase 6-12A-10B-9G
Description: as §1, §2

[8] = molecular target: T1, human histidine-rich glycoprotein …; assay: sandwich ELISA, HRG captured by solid phase 3-4E
Description: as §1, §2

[9] = molecular target: T1, human histidine-rich glycoprotein …; assay: sandwich ELISA, HRG captured by solid phase 81-2C
Description: as §1, §2

[10] = molecular target: T1, human histidine-rich glycoprotein …; assay: sandwich ELISA, HRG captured by solid phase 69-1A
Description: as §1, §2

[11] = molecular target: T1, human histidine-rich glycoprotein …; assay: sandwich ELISA, HRG captured by solid phase 94-7A-3C-3D
Description: as §1, §2

[12] = molecular target: T1, human histidine-rich glycoprotein …; assay: sandwich ELISA, HRG captured by solid phase 32-4C
Description: as §1, §2

[13] = molecular target: T1, human histidine-rich glycoprotein …; assay: sandwich ELISA, HRG captured by solid phase 31-1H
Description: as §1, §2

[14] = molecular target: T1, human histidine-rich glycoprotein …; assay: sandwich ELISA, HRG captured by solid phase 13-2G
Description: as §1, §2

[15] = molecular target: T1, human histidine-rich glycoprotein …; assay: sandwich ELISA, HRG captured by solid phase 67-8A-5F
Description: as §1, §2

[16] = molecular target: T1, human histidine-rich glycoprotein …; assay: sandwich ELISA, HRG captured by solid phase 50-6C-2A
Description: as §1, §2

[17] = molecular target: T1, human histidine-rich glycoprotein …; assay: sandwich ELISA, HRG captured by solid phase 65-3A
Description: as §1, §2

[18] = molecular target: T1, human histidine-rich glycoprotein …; assay: sandwich ELISA, HRG captured by solid phase 93-4C
Description: as §1, §2

[19] = molecular target: T1, human histidine-rich glycoprotein …; assay: sandwich ELISA, HRG captured by solid phase 9-1F
Description: as §1, §2

[20] = molecular target: T1, human histidine-rich glycoprotein …; assay: sandwich ELISA, HRG captured by solid phase 40-10G
Description: as §1, §2

[21] = molecular target: T1, human histidine-rich glycoprotein …; assay: sandwich ELISA, HRG captured by solid phase 88-2E
Description: as §1, §2

Binder	absorbance at 450 nm (OD450) [1]	absorbance at 450 nm [2]	absorbance at 450 nm (OD450) [3]	absorbance at 450 nm [4]	absorbance at 450 nm [5]	absorbance at 450 nm (OD450) [6]	absorbance at 450 nm (OD450) [7]	absorbance at 450 nm [8]	absorbance at 450 nm [9]	absorbance at 450 nm [10]	absorbance at 450 nm [11]	absorbance at 450 nm [12]	absorbance at 450 nm [13]	absorbance at 450 nm (OD450) [14]	absorbance at 450 nm (OD450) [15]	absorbance at 450 nm (OD450) [16]	absorbance at 450 nm [17]	absorbance at 450 nm (OD450) [18]	absorbance at 450 nm [19]	absorbance at 450 nm (OD450) [20]	also measured
anti-HRG monoclonal antibody 65-3A (antibody, V domains shown, Mouse hybridoma monoclonal) VH: QVILKESGPGILQPSQTLSLTCSFSGFSLSTSGVGVSWIRQPSGKGLEWLAHIYWDDDKHYNPSLKSRLTISKDTSRNQVFLRITSVDTADTATYYCALGTVGGPWFPYWGQGTLVTVSA VL: DVQMNQSHKFMSTSVGDRVSITCKASQDVSTAVAWYQQKPGQSPKILIYWASIRHTGVPDRFTGSGSGTDYTLTISSVQAEDLTLYYCQQHYSTPWTFGGGTKLEIK	2 to 3 od	< 1 OD	2 to 3 od	< 1 OD	< 1 OD	1 to 2 od	≥ 3 od	< 1 OD	< 1 OD	< 1 OD	< 1 OD	< 1 OD	< 1 OD	2 to 3 od	2 to 3 od	2 to 3 od	< 1 OD	2 to 3 od	< 1 OD	2 to 3 od	
anti-HRG monoclonal antibody 50-6C-2A (antibody, V domains shown, Mouse hybridoma monoclonal) VH: EVQLQESGPGLVKPSQSLSLTCTVTGYSITSDYAWNWIRQFPGNKLEWMGYISYSGSTNYNPSLKSRISITRDTSKNQFFLQLNSVTTEDTATYYCASASYRYAWFAYWGQGTLVTVST VL: DIQMTQTTSSLSASLGDRVTISCRASQDISNYLNWYQQKPDGTVKLLIYYTSRLHSGVPSRFSGSGSGTDYSLTISNLEQEDIGTYFCQQGNTLPTFGGGTKLEIK	1 to 2 od	< 1 OD	≥ 3 od	< 1 OD	< 1 OD	2 to 3 od			< 1 OD	< 1 OD		< 1 OD	< 1 OD					2 to 3 od	< 1 OD	1 to 2 od	absorbance at 450 nm [21]: < 1 OD; absorbance at 450 nm [7]: < 1 OD; absorbance at 450 nm (OD450) [8]: ≥ 3 od; absorbance at 450 nm (OD450) [11]: 1 to 2 od; absorbance at 450 nm [14]: < 1 OD; absorbance at 450 nm [15]: < 1 OD; absorbance at 450 nm [16]: < 1 OD; absorbance at 450 nm (OD450) [17]: 1 to 2 od
anti-HRG monoclonal antibody 6-12A-10B-9G (antibody, V domains shown, Mouse hybridoma monoclonal; biotin-labeled as detection antibody and for bead immobilisation) VH: EVQLQESGPGLVKPSQSLSLTCTVTGYSITSDYAWNWIRQFPGNKLEWMGYISYSGSTNYNPSLRSRISITRDTSKNQFFLQLISVTTEDTATYYCGSASYRYAWFAYWGQGTLVTVSA VL: DIQVTQTTSSLSASLGDRVTISCRASQDISNYLNWYQQKPDGTVKLLIYYTSRLHSGVPSRFSGSGSGTDYSLTISNLEQEDIATYFCQQGNTLPTFGGGTKLEIK	2 to 3 od	< 1 OD	≥ 3 od	< 1 OD	< 1 OD	≥ 3 od			< 1 OD	< 1 OD		< 1 OD	< 1 OD					≥ 3 od	< 1 OD	2 to 3 od	absorbance at 450 nm [7]: < 1 OD; absorbance at 450 nm (OD450) [8]: ≥ 3 od; absorbance at 450 nm (OD450) [11]: 1 to 2 od; absorbance at 450 nm [14]: < 1 OD; absorbance at 450 nm [15]: < 1 OD; absorbance at 450 nm [16]: < 1 OD; absorbance at 450 nm (OD450) [17]: 2 to 3 od
anti-HRG monoclonal antibody 3-4E (antibody, V domains shown, Mouse (BALB/c) hybridoma monoclonal, Protein A purified; biotin-labeled when used as detection antibody) VH: QVQLQQSGAELMKPGASVKISCKATGYTFSTFWMEWVKQRPGHGLEWIGEILPGSGNANYNEKFKGKATFTADTSSNTAYMQLSSLTSEDSAVYYCAIHYYGYGFAYWGQGTLVTVSA VL: DNVLTQSPAIMSASLGERVTMTCTASSSVSSSYLHWYQQKPGSSPKLWIYTTSNLASGVPVRFSGSGSGTSYSLTISSMEAEDAATYYCHQYHRSPWTFGGGTKLEIK		< 1 OD		< 1 OD			≥ 3 od	< 1 OD	< 1 OD	< 1 OD	< 1 OD	< 1 OD	< 1 OD	≥ 3 od	2 to 3 od	≥ 3 od	< 1 OD				absorbance at 450 nm [21]: < 1 OD
